This passage reports intracellular α-gal A activity of Fabry patient fibroblasts after 18 hours incubation with 10 µg/ml enzyme (fold of untreated cells) results from patent US20220380791A1.

The target in this assay is M6P receptor (M6PR) (human). In words: cell-based or functional assay.

Consider “Agalsidase beta (Genzyme, Fabrazyme) (from UniProt P06280 32-429)”, for which the intracellular α-gal A activity of Fabry patient fibroblasts after 18 hours incubation with 10 µg/ml enzyme (fold of untreated cells) was determined as 134 fold.
